Residue numbers refer to the chain shown, from its start. Where two headings read alike, the source gives them in different places. No end group written: not given here.
Assays:
AP33 mimotope peptide H6 [1] = target: T1, AP33 mimotope peptide H6; assay: peptide ELISA: biotinylated peptide on streptavidin plate, COS7 supernatant, anti-human kappa HRP, OD 655 nm
T1 construct: captured on streptavidin plates; also called mimotope H6; H6 peptide
T1 peptide: VELRNLGGTWRPGSGK-biotin

Peptide D3 [2] = target: T2, Peptide D3; assay: as above
T2 construct: member of the group m28

AP33 mimotope peptide H6 [3] = target: T1, AP33 mimotope peptide H6; assay: as above
E2 peptide B1 [4] = target: T3, E2 peptide B1 (Hepatitis C virus, genotype 2b (Table 5)); assay: as above
[5] = target: HCV E1E2 glycoproteins, genotype 1b (Con1) (Hepatitis C virus genotype 1b (Con1), UniProt Q9WMX2 192-383; Q9WMX2 384-746); assay: cell-based or functional assay
[6] = target: HCV E1E2 glycoproteins, genotype 2a (J6) (Hepatitis C virus genotype 2a (J6)); assay: cell-based or functional assay
[7] = target: HCV E1E2 glycoproteins, genotype 2a isolate JFH1 (on HCVpp) (Hepatitis C virus genotype 2a (JFH1), UniProt Q99IB8 192-383; Q99IB8 384-750); assay: cell-based or functional assay
[8] = target: HCV E1E2 glycoproteins, genotype 3a isolate F4/2-35 (on HCVpp) (Hepatitis C virus genotype 3a (F4/2-35)); assay: cell-based or functional assay
[9] = target: HCV E1E2 glycoproteins, isolate 2A2.4 (on HCVpp) (Hepatitis C virus genotype 2 (2A2.4)); assay: cell-based or functional assay
[10] = target: HCV E1E2 glycoproteins, isolate 4.21.16 (on HCVpp) (Hepatitis C virus genotype 4 (4.21.16)); assay: cell-based or functional assay
[11] = target: HCV E1E2 glycoproteins, isolate 6.5.8 (on HCVpp) (Hepatitis C virus genotype 6 (6.5.8)); assay: cell-based or functional assay
[12] = target: HCV E1E2 glycoproteins, isolate 1A20.8 (on HCVpp) (Hepatitis C virus genotype 1 (1A20.8)); assay: cell-based or functional assay
[13] = target: HCV E1E2 glycoproteins, isolate 1B5.23 (on HCVpp) (Hepatitis C virus genotype 1 (1B5.23)); assay: cell-based or functional assay
[14] = target: HCV E1E2 glycoproteins, isolate 2B1.1 (on HCVpp) (Hepatitis C virus genotype 2 (2B1.1)); assay: cell-based or functional assay
[15] = target: HCV E1E2 glycoproteins, isolate 5.15.11 (on HCVpp) (Hepatitis C virus genotype 5 (5.15.11)); assay: cell-based or functional assay
[16] = target: T4, HCV E1E2 heterodimer expressed on the surface of 293T cells (Hepatitis C virus (isolate )); assay: Scatchard analysis, 125I-antibody versus unlabeled antibody on E1E2-transfected 293T cells
T4 construct: whole, on cells; also called cell surface expressed E2; E1E2 Scatchard

[17] = target: T5, soluble HCV E2 truncated at amino acid 661 (sE2661), His-tagged (Hepatitis C virus (isolate )); assay: SPR (BIAcore A100), antibody captured on anti-human Fc chip, sE2 injected 1.56-50 nM, 1:1 Langmuir fit
T5 construct: extracellular domain; also called soluble E2

Peptide D3 [18] = target: T2, Peptide D3; assay: peptide ELISA: biotinylated peptide on streptavidin plate, COS7 supernatant, anti-human kappa HRP, OD 655 nm; remark: listed apart in the source
AP33 mimotope peptide H6 [19] = target: T1, AP33 mimotope peptide H6; assay: as above
E2 peptide B1 [20] = target: T3, E2 peptide B1; assay: as above; remark: listed apart in the source
E2 peptide C2 [21] = target: T6, E2 peptide C2 (Hepatitis C virus, genotype 1a (Table 5), not fully specified (residue 16, C-terminus)); assay: as above
T6 peptide: QLINTNGSWHVNGSGK

[22] = target: T5, soluble HCV E2 truncated at amino acid …; assay: SPR (BIAcore), sE2
[23] = target: T4, HCV E1E2 heterodimer expressed on the …; assay: Scatchard analysis, 125I-Fab versus unlabeled Fab on E1E2-transfected 293T cells
Peptide D3 [24] = target: T2, Peptide D3; assay: peptide ELISA: biotinylated peptide on streptavidin plate, COS7 supernatant, anti-human kappa HRP, OD 655 nm; remark: listed apart in the source
AP33 mimotope peptide H6 [25] = target: T1, AP33 mimotope peptide H6; assay: as above
E2 peptide B1 [26] = target: T3, E2 peptide B1; assay: as above; remark: listed apart in the source
E2 peptide C2 [27] = target: T6, E2 peptide C2; assay: as above
Peptide D3 [28] = target: T2, Peptide D3; assay: as above; remark: listed apart in the source
AP33 mimotope peptide H6 [29] = target: T1, AP33 mimotope peptide H6; assay: as above
E2 peptide B1 [30] = target: T3, E2 peptide B1; assay: as above; remark: listed apart in the source
Peptide D3 [31] = target: T2, Peptide D3; assay: as above; remark: listed apart in the source
AP33 mimotope peptide H6 [32] = target: T1, AP33 mimotope peptide H6; assay: as above
E2 peptide B1 [33] = target: T3, E2 peptide B1; assay: as above; remark: listed apart in the source
E2 peptide C2 [34] = target: T6, E2 peptide C2; assay: as above
Peptide D3 [35] = target: T2, Peptide D3; assay: as above; remark: listed apart in the source
AP33 mimotope peptide H6 [36] = target: T1, AP33 mimotope peptide H6; assay: as above
E2 peptide B1 [37] = target: T3, E2 peptide B1; assay: as above; remark: listed apart in the source
E2 peptide C2 [38] = target: T6, E2 peptide C2; assay: as above

B1: humanized AP33 antibody RHb-h/RK2bc (antibody, V domains shown)
VH: QVQLQESGPGLVKPSETLSLTCTVSGDSITSGYWNWIRQPPGRALEYMGYISYSGSTYYNLSLRSRITISRDTSKNQYSLRLSSVTAADTAMYYCALITTTTYAMDYWGQGTTVTVS
VL: EIVLTQSPSSLSASVGDRVTITCRASESVDGYGNSFLHWFQQKPGKAPKLLIYLASNLNSGVPSRFSGSGSRTDFTLTISSLQPEDFATYYCQQNNVDPWTFGQGTKLEIK
notes: also called RHbcdefgh/RK2bc
EC50 (read off the curve) (AP33 mimotope peptide H6 [1]): ~30 ng/mL | EC50 (read off the curve) (Peptide D3 [2]): ~50 ng/mL | EC50 (read off the curve) (AP33 mimotope peptide H6 [3]): ~40 ng/mL | binding result (E2 peptide B1 [4]): no binding (tested: about 1400 ng/ml)

B2: humanized AP33 antibody RH-C/RK2b (antibody, V domains shown)
VH: QVQLQESGPGLVKPSETLSLTCTVSGDSITSGYWNWIRQPPGRALEWMGYISYSGSTYYNLSLRSRITISRDTSKNQYSLRLSSVTAADTAMYYCALITTTTYAMDYWGQGTTVTVSS
VL: B1 VL with R72G
notes: also called RH-C antibody
EC50, neutralization of Con1 HCVpp entry (Huh-7.5, luciferase) [5]: 0.511 µg/mL | EC50, neutralization of J6 HCVpp entry (Huh-7.5, luciferase) [6]: 0.793 µg/mL | neutralization of J6 HCVcc infection, fold better than AP33 [6]: ≥ 4.7 fold | IC50 of HCVpp infection (Huh-7, luciferase) [7]: 0.64 µg/mL | IC90 of HCVpp infection (Huh-7, luciferase) [7]: 7 µg/mL | IC50 of HCVpp infection (Huh-7, luciferase) [8]: < 0.41 µg/mL | IC90 of HCVpp infection (Huh-7, luciferase) [8]: 2.15 µg/mL | IC50 of HCVpp infection (Huh-7, luciferase) [9]: 0.51 µg/mL | IC90 of HCVpp infection (Huh-7, luciferase) [9]: 6 µg/mL | IC50 of HCVpp infection (Huh-7, luciferase) [10]: < 0.41 µg/mL | IC90 of HCVpp infection (Huh-7, luciferase) [10]: 0.92 µg/mL | IC50 of HCVpp infection (Huh-7, luciferase) [11]: < 0.41 µg/mL | IC90 of HCVpp infection (Huh-7, luciferase) [11]: 1.8 µg/mL | IC50 of HCVpp infection (Huh-7, luciferase) [12]: 1.6 µg/mL | IC90 of HCVpp infection (Huh-7, luciferase) [12]: 15 µg/mL | IC50 of HCVpp infection (Huh-7, luciferase) [13]: 0.9 µg/mL | IC90 of HCVpp infection (Huh-7, luciferase) [13]: 8.3 µg/mL | IC50 of HCVpp infection (Huh-7, luciferase) [14]: 3 µg/mL | IC90 of HCVpp infection (Huh-7, luciferase) [14]: > 15 µg/mL | IC50 of HCVpp infection (Huh-7, luciferase) [15]: 0.053 µg/mL | IC90 of HCVpp infection (Huh-7, luciferase) [15]: 0.82 µg/mL | Kd [16]: 5 nM | Kd [17]: 3.8 nM

B3: humanized AP33 antibody RH-C/RK2bc (antibody, V domains shown)
VH: B2 VH
VL: B1 VL
EC50 (read off the curve) (Peptide D3 [18]): ~50 ng/mL | EC50 (read off the curve) (AP33 mimotope peptide H6 [19]): ~40 ng/mL | binding result (E2 peptide B1 [20]): no binding (tested: about 2200 ng/ml) | binding result (E2 peptide C2 [21]): binds

B4: RH-C/RK2b Fab (Fab, V domains shown)
VH: B2 VH
VL: B1 VL with R72G
notes: also called Fab fragment of RH-C/RK2b
Kd [22]: ~0.5 nM | Kd [23]: 50 nM

B5: RHb-h/Vl (humanized heavy chain RHb-h with chimeric light chain) (antibody, V domains shown)
VH: B1 VH
VL: NIVLTQSPVSLAVSLGQRATISCRASESVDGYGNSFLHWFQQKPGQPPKLLIYLASNLNSGVPARFSGSGSRTDFTLTIDPVEADDAATYYCQQNNVDPWTFGGGTKLEIK
notes: also called RHb-h/V1
EC50 (read off the curve) (Peptide D3 [24]): ~20 ng/mL | EC50 (read off the curve) (AP33 mimotope peptide H6 [25]): ~20 ng/mL | binding result (E2 peptide B1 [26]): no binding (tested: about 500 ng/ml) | binding result (E2 peptide C2 [27]): binds

B6: humanized AP33 antibody RH-H/RK2bc (antibody, V domains shown)
VH: B1 VH with L97R
VL: B1 VL
EC50 (read off the curve) (Peptide D3 [28]): ~40 ng/mL | EC50 (read off the curve) (AP33 mimotope peptide H6 [29]): ~30 ng/mL | binding result (E2 peptide B1 [30]): no binding (tested: about 1000 ng/ml)

B7: AP33 RH-B/RK2bc (antibody, V domains shown)
VH: B2 VH with T30S, W47Y
VL: B1 VL
notes: COS7 supernatant
binding result (Peptide D3 [31]): binds | binding result (AP33 mimotope peptide H6 [32]): binds | binding result (E2 peptide B1 [33]): no binding (tested: about 800 ng/ml) | binding result (E2 peptide C2 [34]): binds

B8: AP33 RH-D/RK2bc (antibody, V domains shown)
VH: B1 VH with M48I
VL: B1 VL
notes: COS7 supernatant
EC50 (read off the curve) (Peptide D3 [35]): ~40 ng/mL | EC50 (read off the curve) (AP33 mimotope peptide H6 [36]): ~40 ng/mL | binding result (E2 peptide B1 [37]): no binding (tested: about 950 ng/ml) | binding result (E2 peptide C2 [38]): binds
